Reference: the RNAGym collection of RNA variant scans (doi:10.1021/acssynbio.7b00057)

B1: Pistol ribozyme (parent)
chain: GGGUCGUUGUUCCAUAAUCGCGUGGAUAUGGCACGCAAGUUUCUACCGGGCACCGUAAAUGUCCGACUGGAGCCGUUCGGGCGGCUAUAAACAGACCUCAGGCCCGAAGCGUGGCGGCACCUGCCGCCGGUGGUAAAAAAGAUCGGAAGAGCACACGUCU

Variants of: B1
Assay: aptazyme ON/OFF ratio, guanine; higher = stronger switching; co-transcriptional cleavage with and without guanine

Point of comparison: U7A U8G G9U U10G C12A C13U, “aptazyme ON/OFF ratio” value 1.15. Against it:
- G9C U10C U11A C13A — lower, 1.05
- U7C U8G U10C U11G C13G — lower, 1.1
- U7G U8C G9A U10C C12G — higher, 1.29
- U7A G9C U10C U11C C12A C13U — lower, 1.02
- U8G G9U U11G C12U C13A — lower, 1.13
- G9A U10C C12A C13A — higher, 1.46
- U7C G9U U10A C13G — lower, 1.04
- U7G G9A U11C C12G C13U — lower, 1.13
- U10G U11C C13G — lower, 1.04
- U7G U11G C12A C13A — lower, 1.13
- U7G G9C U11G C12A C13U — higher, 1.47
- U7C U8C G9A U10G U11C C12A — higher, 1.54
- U7A U8C G9A U10A U11A C12G C13A — lower, 1.11
- U7A U8G G9C U10A U11C C12A C13U — higher, 1.5
- U7A U8A G9C U10C U11G C12G C13G — lower, 1.08
- U7G U8A U10G U11A C13G — higher, 1.23
- U8A U10G U11G C12U — higher, 1.48
- U8A G9C U10C U11G C12G C13U — lower, 1.09
- U7C G9C U10C — lower, 1.14
- U7A U8A U10G U11C C12U C13G — higher, 1.48
- U7G U8A G9C U10G U11A C12A C13U — lower, 1.03
- U7A U8A G9C U10G U11G C12A C13A — higher, 1.4
- U7C U8A G9A U10A C12A C13A — higher, 1.19
- U7A U11A C13A — lower, 1.13
- U7C U8G G9C U10C U11C C13A — lower, 1.03
- U7A U8C U10A U11G C12U — higher, 1.27
- U7C U10C U11A C13U — higher, 1.38
- U8A U10C U11A C12U C13G — higher, 1.23
- U7G U8A G9C U10G U11C C12G C13A — lower, 1.03
- U7A U8A G9U U11C C12G C13G — lower, 1.04
- U7A U8A U10C U11A C12U — lower, 1.14
- U7A U8C G9U U10C U11G C12G — lower, 1.06
- U8A U10A U11G C12U — higher, 1.52
- U7A U8G G9A U11C C12G C13G — higher, 1.4
- U8A U10C U11C C12A C13G — lower, 1.14
- U7A U8A G9C U10C U11G C12U C13U — lower, 1.06
- U8C U10A U11C C12G C13U — higher, 1.2
- U7C U8C U10C U11A C13U — higher, 1.31
- U7G U8G U10C U11C — higher, 2.2
- U7G U8A G9A U10A U11A C12U — higher, 1.18
- U7G U10A U11C C12U C13G — lower, 1.05
- U8C U10A — lower, 1.1
- U7G U8A U10A U11A — higher, 2.2
- U7G U8G G9C U10G U11G C13A — higher, 1.18
- U7C U8G G9U U10A C12U C13U — higher, 1.35
- U7C U8G U10A U11A C13A — lower, 1.12
- U7C U8A G9A U11C C12A — higher, 1.23
- U7A U8C G9C U10A U11C C12G — higher, 1.26
- U7G U10G C12U C13G — higher, 1.24
- U7A U8A G9C U10A U11G C13G — lower, 1.11
- G9C U10C U11A C13G — lower, 1.07
- U8A G9C U11A C12A — higher, 1.19
- U7A G9A U10G U11G C12U C13A — higher, 1.17
- U7G U8A G9C U10C U11A C12A — lower, 1.03
- U7C U8C U10A U11A C13G — lower, 1.14
- U7C U8C G9C U10A U11A — higher, 1.44
- U7A U8C U10C U11G C12G C13G — higher, 1.24
- U7A C12G — higher, 1.44
- U7C U8G U10G U11G C13U — higher, 1.39
- U7G U8G U10A U11C C12G C13U — higher, 1.29
- U7C U8A U10C U11A C12A C13U — lower, 1.14
- U7G U8C G9C U10G U11A C12G C13A — lower, 1.07
- U8C G9A U11C C12U C13U — higher, 1.22
- U7A U8A G9A U10G C12A C13G — lower, 1.12
- U7A U8A — higher, 2.94
- U7G U8G G9C U10G C12U C13A — lower, 1.06
- U7A U8A G9C U10A U11A C13G — lower, 1.09
- U7C U8G G9C U10A U11G C12A C13G — higher, 1.19
- U7G U8G G9U U10C U11C C12A C13U — higher, 1.53
- U7A U8G G9U U11C C12A C13U — lower, 1.11
- U8C G9A U10A U11C C12U C13G — lower, 1.14
- U7C U8C G9U U10C U11C C12G C13U — lower, 1.05
- U7G U8G G9C U10C C12A C13U — higher, 1.25
- U8C U10A U11G C12G C13U — higher, 1.28
- U8G G9A U10C U11C C12U C13U — lower, 1.03
- U7A G9C U10G U11G C12U C13U — higher, 1.16
- U7G U8G U10A C12G C13G — higher, 1.2
- U8C G9U U11A C12U — higher, 1.39
- U7G U8A G9C U11C — lower, 1.05
- U7G G9A U11G C12G C13G — lower, 1.07
- U8G U10C U11A C12U C13U — higher, 1.22
- U7A U8A G9U U10A C12G C13A — higher, 1.2
